B1: Low affinity Control (Control Humanized anti-CD3 (low affinity) scFv-Fc knob/TM with gemtuzumab arm) (bispecific antibody)
scFv: EVQLVESGGGLVQPGGSLRLSCAASGFTFSTYAMNWVRQAPGKGLEWVGRIRSKYNNYATYYADSVKGRFTISRDDSKNTLYLQMNSLRAEDTAVYYCVRHGNFGDSYVSWFDYWGQGTLVTVSSGKPGSGKPGSGKPGSGKPGSQAVVTQEPSLTVSPGGTVTLTCGSSTGAVTTSNYANWVQQKPGKSPRGLIGGTNKRAPGVPARFSGSLLGGKAALTISGAQPEDEADYYCALWYSNHWVFGGGTKLTVLGGGGSDKTHTCPPCPAPEFEGGPSVFLFPPKPKDTLMISRTPEVTCVVVDVSHEDPEVKFNWYVDGVEVHNAKTKPREEQYNSTYRVVSVLTVLHQDWLNGKEYKCKVSNKALPASIEKTISKAKGQPREPQVYTLPPCREEMTKNQVSLWCLVKGFYPSDIAVEWESNGQPENNYKTTPPVLDSDGSFFLYSKLTVDKSRWQQGNVFSCSVMHEALHNHYTQKSLSLSPGK
heavy: EVQLVQSGAEVKKPGSSVKVSCKASGYTITDSNIHWVRQAPGQSLEWIGYIYPYNGGTDYNQKFKNRATLTVDNPTNTAYMELSSLRSEDTAFYYCVNGNPWLAYWGQGTLVTVSSASTKGPSVFPLAPSSKSTSGGTAALGCLVKDYFPEPVTVSWNSGALTSGVHTFPAVLQSSGLYSLSSVVTVPSSSLGTQTYICNVNHKPSNTKVDKRVEPKSCDKTHTCPPCPAPEFEGGPSVFLFPPKPKDTLMISRTPEVTCVVVDVSHEDPEVKFNWYVDGVEVHNAKTKPREEQYNSTYRVVSVLTVLHQDWLNGKEYKCKVSNKALPASIEKTISKAKGQPREPQVCTLPPSREEMTKNQVSLSCAVKGFYPSDIAVEWESNGQPENNYKTTPPVLDSDGSFFLVSKLTVDKSRWQQGNVFSCSVMHEALHNRFTQKSLSLSPGK
light: DIQLTQSPSTLSASVGDRVTITCRASESLDNYGIRFLTWFQQKPGKAPKLLMYAASNQGSGVPSRFSGSGSGTEFTLTISSLQPDDFATYYCQQTKEVPWSFGQGTKVEVKRTVAAPSVFIFPPSDEQLKSGTASVVCLLNNFYPREAKVQWKVDNALQSGNSQESVTEQDSKDSTYSLSSTLTLSKADYEKHKVYACEVTHQGLSSPVTKSFNRGEC
B2: CD3 × CD33-BspAb45 (bispecific antibody)
chain 1: EVQLVESGGGLVQPGGSLRLSCAASGFTFSRYSMNWVRQAPGKCLEWVSYISSSSSSIYYADSVKGRFTISRDNAKNSLYLQMNSLRDEDTAVYYCARDRRATLDYWGQGTLVTVSSGGGGSGGGGSGGGGSGGGGSNFMLTQPHSVSESPGKTVTISCTRSSGSIASNYVQWYQQRPGSSPTTVIYEDNQRPSGVPDRFSGSIDSSSNSASLTISGLKTEDEADYYCQSYDSSNHVFGCGTKLTVLDKTHTCPPCPAPEFEGGPSVFLFPPKPKDTLMISRTPEVTCVVVDVSHEDPEVKFNWYVDGVEVHNAKTKPREEQYNSTYRVVSVLTVLHQDWLNGKEYKCKVSNKALPASIEKTISKAKGQPREPQVYTLPPCREEMTKNQVSLWCLVKGFYPSDIAVEWESNGQPENNYKTTPPVLDSDGSFFLYSKLTVDKSRWQQGNVFSCSVMHEALHNHYTQKSLSLSPGK
chain 2: B1 heavy
chain 3: B1 light
B3: CD3 × CD33-BspAb37 (bispecific antibody)
chain 1: not shown
chain 2: B1 heavy
chain 3: B1 light
B4: CD3 × CD33-BspAb38 (bispecific antibody)
chain 1: not shown
chain 2: B1 heavy
chain 3: B1 light
B5: CD3 × CD33-BspAb52 (bispecific antibody)
chain 1: not shown
chain 2: B1 heavy
chain 3: B1 light
B6: CD3 × CD33-BspAb116 (bispecific antibody)
chain 1: NFMLTQPHSVSESPGKTVTISCTRSSGSIASNYVQWYQQRPGSSPTTVIYEDNQRPSGVPDRFSGSIDSSSNSASLTISGLKTEDEAYYYCQSFDSSNRVFGCGTKLTVLGGGGSGGGGSGGGGSGGGGSQVQLQESGPGLVKPSQTLSLTCTVSGGSISSGGYYWSWIRQHPGKCLEWIGYIYYSGSTYYNPSLKSRVTISVDTSKDQFSLKLSSVTAADTAVYYCARERKTSLPFDIWGQGTMVTVSSDKTHTCPPCPAPEFEGGPSVFLFPPKPKDTLMISRTPEVTCVVVDVSHEDPEVKFNWYVDGVEVHNAKTKPREEQYNSTYRVVSVLTVLHQDWLNGKEYKCKVSNKALPASIEKTISKAKGQPREPQVYTLPPCREEMTKNQVSLWCLVKGFYPSDIAVEWESNGQPENNYKTTPPVLDSDGSFFLYSKLTVDKSRWQQGNVFSCSVMHEALHNHYTQKSLSLSPGK
chain 2: B1 heavy
chain 3: B1 light
B7: CD3 × CD33-BspAb51 (bispecific antibody)
chain 1: not shown
chain 2: B1 heavy
chain 3: B1 light

Target: T1, human CD3 (on human Pan-T cells or donor PBMC) (human, UniProt P07766 23-207; P04234 22-171; P09693 23-182; P20963 22-164)
Assay: cell-based or functional assay

T1 sequence (P07766 23-207, chain 1 of 4): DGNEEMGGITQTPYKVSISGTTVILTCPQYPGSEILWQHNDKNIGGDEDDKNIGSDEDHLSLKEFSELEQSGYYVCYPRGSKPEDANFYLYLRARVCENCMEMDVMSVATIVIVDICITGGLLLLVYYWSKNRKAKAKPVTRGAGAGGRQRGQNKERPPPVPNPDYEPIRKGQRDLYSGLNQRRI
T1 sequence (P04234 22-171, chain 2 of 4): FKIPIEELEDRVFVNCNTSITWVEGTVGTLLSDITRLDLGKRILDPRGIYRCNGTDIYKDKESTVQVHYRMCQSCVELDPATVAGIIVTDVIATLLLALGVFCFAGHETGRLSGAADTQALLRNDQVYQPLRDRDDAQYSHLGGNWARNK
T1 sequence (P09693 23-182, chain 3 of 4): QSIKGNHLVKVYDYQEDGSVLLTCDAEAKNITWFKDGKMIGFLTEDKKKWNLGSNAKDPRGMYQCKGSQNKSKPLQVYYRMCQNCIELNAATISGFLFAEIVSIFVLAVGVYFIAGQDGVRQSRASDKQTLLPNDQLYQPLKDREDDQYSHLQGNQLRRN
T1 sequence (P20963 22-164, chain 4 of 4): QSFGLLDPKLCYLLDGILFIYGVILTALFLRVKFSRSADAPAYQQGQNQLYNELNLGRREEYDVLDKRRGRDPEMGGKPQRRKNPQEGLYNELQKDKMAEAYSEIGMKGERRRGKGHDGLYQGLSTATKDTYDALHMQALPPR

| Binder | Cytokine Release Assay (IFNγ), Donor 0, EC50 | Cytokine Release Assay (IFNγ), Donor 0, gMFI max | Cytokine Release Assay (IFNγ), Donor 1, EC50 | Cytokine Release Assay (IFNγ), Donor 1, gMFI max | Cytokine Release Assay (IFNγ), Donor 2, EC50 | Cytokine Release Assay (IFNγ), Donor 2, gMFI max | Cytokine Release Assay (IFNγ), Donor 3, EC50 | Cytokine Release Assay (IFNγ), Donor 3, gMFI max |
| --- | --- | --- | --- | --- | --- | --- | --- | --- |
| B1 | 0.308 nM | 2.92e+06 gMFI | 14.4 nM | 129000 gMFI | 16.4 nM | 712000 gMFI | 11.4 nM | 1.08e+06 gMFI |
| B2 | 0.096 nM | 1.39e+06 gMFI |  | 4630 gMFI | 0.0684 nM | 26900 gMFI |  | 290000 gMFI |
| B3 | 0.252 nM | 1.06e+06 gMFI |  | 5560 gMFI | 0.14 nM | 32900 gMFI | 1.76 nM | 317000 gMFI |
| B4 | 8.38 nM | 555000 gMFI |  | 4320 gMFI | 13.4 nM | 18000 gMFI | 6.38 nM | 98500 gMFI |
| B5 |  | 6350 gMFI |  | 4220 gMFI |  | 4670 gMFI | 25.4 nM | 8060 gMFI |
| B6 |  | 187000 gMFI |  | 5440 gMFI | 0.177 nM | 14100 gMFI | 1.51 nM | 167000 gMFI |
| B7 | 0.269 nM | 1.34e+06 gMFI | 15.3 nM | 10800 gMFI | 0.292 nM | 30600 gMFI | 0.214 nM | 355000 gMFI |

Target: T1, human CD3 (on human Pan-T cells or …)
Assay: cell-based or functional assay
Remark: another data set of the same source

| Binder | RTCC Assay, Donor 0, EC50 | RTCC Assay, Donor 0, gMFI max | RTCC Assay, Donor 1, EC50 | RTCC Assay, Donor 1, gMFI max | RTCC Assay, Donor 2, EC50 | RTCC Assay, Donor 2, gMFI max | RTCC Assay, Donor 3, EC50 | RTCC Assay, Donor 3, gMFI max |
| --- | --- | --- | --- | --- | --- | --- | --- | --- |
| B1 | 23.7 nM | 59700 gMFI | 5.02 nM | 122000 gMFI | 6.68 nM | 82100 gMFI | 0.299 nM | 104000 gMFI |
| B2 | 0.03 nM | 23300 gMFI | 0.004 nM | 76100 gMFI | 0.012 nM | 55900 gMFI | 0.02 nM | 86700 gMFI |
| B3 | 0.172 nM | 31600 gMFI | 0.01 nM | 70600 gMFI | 0.042 nM | 59200 gMFI | 0.053 nM | 82300 gMFI |
| B4 | 1.49 nM | 23300 gMFI | 0.413 nM | 64800 gMFI | 0.717 nM | 50500 gMFI | 1.72 nM | 75800 gMFI |
| B5 | 5.21 nM | 16200 gMFI | 0.762 nM | 57800 gMFI | 2.28 nM | 37700 gMFI | 7.83 nM | 42700 gMFI |
| B6 | 0.126 nM | 24500 gMFI | 0.045 nM | 66000 gMFI | 0.121 nM | 52800 gMFI | 0.171 nM | 65800 gMFI |
| B7 | 0.2 nM | 28400 gMFI | 0.036 nM | 66900 gMFI | 0.05 nM | 55800 gMFI | 0.085 nM | 80600 gMFI |
